First the molecules themselves.
B1: POU domain, class 3, transcription factor 3, residues 320 to 388; numbered along this chain, P20264 (parent)
chain: DDLEQFAKQFKQRRIKLGFTQADVGLALGTLYGNVFSQTTICRFEALQLSFKNMCKLKPLLNKWLEEAD

± gives the uncertainty stated by the source.

Variants of B1 are the subject of this series. Put plainly: abundance fitness (aPCA) (normalised: wild type 0, dead -1); higher = more abundant; growth selection in yeast, the domain comes from the species named. The settings on record: Homo sapiens.
For DDLEQFAKQFKQRRIKLGFLQADVGLALGTLYGNVFSQTTICRFEALQLSFKNMCKLKPLLNKWLEEAD, the abundance fitness is -0.828 ± 0.26.

DDLEQFAKQFKQRRIKLGFKQADVGLALGTLYGNVFSQTTICRFEALQLSFKNMCKLKPLLNKWLEEAD: the abundance fitness is -0.738 ± 0.28.

Regarding DDLEQFAKQFKQRRIKLGFVQADVGLALGTLYGNVFSQTTICRFEALQLSFKNMCKLKPLLNKWLEEAD, the abundance fitness is -1.02 ± 0.35.

Turning to DDLEQFAKQFKQRRIKLGFPQADVGLALGTLYGNVFSQTTICRFEALQLSFKNMCKLKPLLNKWLEEAD, the abundance fitness is -0.627 ± 0.29.

As to DDLEQFAKQFKQRRIKLGFWQADVGLALGTLYGNVFSQTTICRFEALQLSFKNMCKLKPLLNKWLEEAD, the abundance fitness is -0.862 ± 0.26.

Take DDLEQFAKQFKQRRIKLGFGQADVGLALGTLYGNVFSQTTICRFEALQLSFKNMCKLKPLLNKWLEEAD: the abundance fitness was -0.556 ± 0.076.

Regarding DDLEQFAKQFKQRRIKLGFAQADVGLALGTLYGNVFSQTTICRFEALQLSFKNMCKLKPLLNKWLEEAD, the abundance fitness is -0.556 ± 0.16.

As to DDLEQFAKQFKQRRIKLGFSQADVGLALGTLYGNVFSQTTICRFEALQLSFKNMCKLKPLLNKWLEEAD, the abundance fitness was -0.079 ± 0.076.

As to DDLEQFAKQFKQRRIKLGFRQADVGLALGTLYGNVFSQTTICRFEALQLSFKNMCKLKPLLNKWLEEAD, the abundance fitness is -0.908 ± 0.17.

For DDLEQFAKQFKQRRWKLGFTQADVGLALGTLYGNVFSQTTICRFEALQLSFKNMCKLKPLLNKWLEEAD, the abundance fitness is -0.751 ± 0.29.

With DDLEQFAKQFKQRRMKLGFTQADVGLALGTLYGNVFSQTTICRFEALQLSFKNMCKLKPLLNKWLEEAD, the abundance fitness is -0.426 ± 0.2.

For DDLEQFAKQFKQRRHKLGFTQADVGLALGTLYGNVFSQTTICRFEALQLSFKNMCKLKPLLNKWLEEAD, the abundance fitness is -0.875 ± 0.36.

In the case of DDLEQFAKQFKQRRQKLGFTQADVGLALGTLYGNVFSQTTICRFEALQLSFKNMCKLKPLLNKWLEEAD, the abundance fitness was -0.052 ± 0.24.

Regarding DDLEQFAKQFKQRRFKLGFTQADVGLALGTLYGNVFSQTTICRFEALQLSFKNMCKLKPLLNKWLEEAD, the abundance fitness is -0.249 ± 0.22.

With DDLEQFAKQFKQRRPKLGFTQADVGLALGTLYGNVFSQTTICRFEALQLSFKNMCKLKPLLNKWLEEAD, the abundance fitness is -0.501 ± 0.15.

As to DDLEQFAKQFKQRRGKLGFTQADVGLALGTLYGNVFSQTTICRFEALQLSFKNMCKLKPLLNKWLEEAD, the abundance fitness was -0.778 ± 0.18.

For the variant DDLEQFAKQFKQRRRKLGFTQADVGLALGTLYGNVFSQTTICRFEALQLSFKNMCKLKPLLNKWLEEAD, the abundance fitness was -0.421 ± 0.082.

As for DDLEQFAKQFKQRRKKLGFTQADVGLALGTLYGNVFSQTTICRFEALQLSFKNMCKLKPLLNKWLEEAD, the abundance fitness is -0.336 ± 0.15.

As for DDLEQFAKQFKQRRSKLGFTQADVGLALGTLYGNVFSQTTICRFEALQLSFKNMCKLKPLLNKWLEEAD, the abundance fitness is -0.17 ± 0.036.

As to DDLEQFAKQFKQRRLKLGFTQADVGLALGTLYGNVFSQTTICRFEALQLSFKNMCKLKPLLNKWLEEAD, the abundance fitness is -0.252 ± 0.059.

For the variant DDLEQFAKQFKQRREKLGFTQADVGLALGTLYGNVFSQTTICRFEALQLSFKNMCKLKPLLNKWLEEAD, the abundance fitness amounted to 0.058 ± 0.14.

For the variant DDLEQFAKQFKQRYIKLGFTQADVGLALGTLYGNVFSQTTICRFEALQLSFKNMCKLKPLLNKWLEEAD, the abundance fitness is -0.764 ± 0.27.

Take DDLEQFAKQFKQRLIKLGFTQADVGLALGTLYGNVFSQTTICRFEALQLSFKNMCKLKPLLNKWLEEAD: the abundance fitness is -0.783 ± 0.08.

Regarding DDLEQFAKQFKQRGIKLGFTQADVGLALGTLYGNVFSQTTICRFEALQLSFKNMCKLKPLLNKWLEEAD, the abundance fitness is -0.871 ± 0.25.

On to DDLEQFAKQFKQRTIKLGFTQADVGLALGTLYGNVFSQTTICRFEALQLSFKNMCKLKPLLNKWLEEAD, for which the abundance fitness was -0.939 ± 0.25.

As to DDLEQFAKQFKQRSIKLGFTQADVGLALGTLYGNVFSQTTICRFEALQLSFKNMCKLKPLLNKWLEEAD, the abundance fitness is -0.813 ± 0.21.

As for DDLEQFAKQFKQRWIKLGFTQADVGLALGTLYGNVFSQTTICRFEALQLSFKNMCKLKPLLNKWLEEAD, the abundance fitness was -0.944 ± 0.39.

Turning to DDLEQFAKQFKQRQIKLGFTQADVGLALGTLYGNVFSQTTICRFEALQLSFKNMCKLKPLLNKWLEEAD, the abundance fitness is -0.861 ± 0.28.

With DDLEQFAKQFKQRVIKLGFTQADVGLALGTLYGNVFSQTTICRFEALQLSFKNMCKLKPLLNKWLEEAD, the abundance fitness was -0.751 ± 0.22.

For the variant DDLEQFAKQFKQRMIKLGFTQADVGLALGTLYGNVFSQTTICRFEALQLSFKNMCKLKPLLNKWLEEAD, the abundance fitness was -0.954 ± 0.35.

With DDLEQFAKQFKQRRIKLGFTCADVGLALGTLYGNVFSQTTICRFEALQLSFKNMCKLKPLLNKWLEEAD, the abundance fitness is -0.278 ± 0.39.

For the variant DDLEQFAKQFKQRRIKLGFTGADVGLALGTLYGNVFSQTTICRFEALQLSFKNMCKLKPLLNKWLEEAD, the abundance fitness was -0.629 ± 0.22.

Regarding DDLEQFAKQFKQRRIKLGFTPADVGLALGTLYGNVFSQTTICRFEALQLSFKNMCKLKPLLNKWLEEAD, the abundance fitness was -0.23 ± 0.15.

As for DDLEQFAKQFKQRRIKLGFTEADVGLALGTLYGNVFSQTTICRFEALQLSFKNMCKLKPLLNKWLEEAD, the abundance fitness is -0.061 ± 0.12.

In the case of DDLEQFAKQFKQRRIKLGFTMADVGLALGTLYGNVFSQTTICRFEALQLSFKNMCKLKPLLNKWLEEAD, the abundance fitness is -0.489 ± 0.25.

DDLEQFAKQFKQRRIKLGFTAADVGLALGTLYGNVFSQTTICRFEALQLSFKNMCKLKPLLNKWLEEAD: the abundance fitness is -0.281 ± 0.12.

With DDLEQFAKQFKQRRIKLGFTLADVGLALGTLYGNVFSQTTICRFEALQLSFKNMCKLKPLLNKWLEEAD, the abundance fitness is -0.271 ± 0.14.

For DDLEQFAKQFKQRRIKLGFTHADVGLALGTLYGNVFSQTTICRFEALQLSFKNMCKLKPLLNKWLEEAD, the abundance fitness was -0.08 ± 0.11.

As to DDLEQFAKQFKQRRIKLGFTRADVGLALGTLYGNVFSQTTICRFEALQLSFKNMCKLKPLLNKWLEEAD, the abundance fitness was -0.184 ± 0.065.

The values are drawn from the Human Domainome abundance scans (Beltran et al. 2025).
